Data on three molecules can be found in publication PMC5986797 (2018).

Test in all cases: ELISA
In assay [1] the target is T1, laminin peptide LAMA4_(1408–1434) (Homo sapiens (Human), UniProt Q16363).
T1 chain: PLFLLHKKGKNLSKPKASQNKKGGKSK

Assay [2] deals with T2, laminin peptide LAMA5_(3417–3436) (Homo sapiens (Human), UniProt O15230).
T2 chain: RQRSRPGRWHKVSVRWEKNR

Assay [3] deals with T3, laminin peptide LAMA5_(3300–3330) (Homo sapiens (Human), UniProt O15230).
T3 chain: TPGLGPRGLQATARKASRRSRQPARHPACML

The target in assay [4] is T4, laminin peptide LAMA4_(1521–1543) (Homo sapiens (Human), UniProt Q16363).
T4 chain: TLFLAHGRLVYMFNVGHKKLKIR

Assay [5] addresses T5, laminin peptide LAMA5_(3539–3550) (Homo sapiens (Human), UniProt O15230).
T5 chain: TLPDVGLELEVR

Assay [6] concerns the target T6, laminin peptide LAMA3_(3043–3067) (Homo sapiens (Human), UniProt Q16787).
T6 chain: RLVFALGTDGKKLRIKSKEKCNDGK

B1: recombinant human syndecan-4 (protein)
chain: ESIRETEVIDPQDLLEGRYFSGALPDDEDVVGPGQESDDFELSGSGDLDDLEDSMIGPEVVHPLVPLDNHIPERAGSGSQVPTEPKKLEENEVIPKRISPVEESEDVSNKVSMSSTVQGSNIFERTE
Turning to B1, the binding result in assay [1] is listed as “binds”; in assay [2] it was “binds”; in assay [3], “binds”; in assay [4] it was “binds”; in assay [5], “no binding”; in assay [6] it was “binds”.

B2: recombinant human syndecan-2 (protein)
chain: ESRAELTSDKDMYLDNSSIEEASGVYPIDDDDYASASGSGADEDVESPELTTSRPLPKILLTSAAPKVETTTLNIQNKIPAQTKSPEETDKEKVHLSDSERKMDPAEEDTNVYTEKHSDSLFKRTE
Consider B2, for which the binding result in assay [1] is on record as “binds”; in assay [2], “binds”; in assay [3], “binds”; in assay [4], “binds”; in assay [5] it was “no binding”; in assay [6] it was “binds”.

B3: recombinant human syndecan-1 (protein)
chain: QIVATNLPPEDQDGSGDDSDNFSGSGAGALQDITLSQQTPSTWKDTQLLTAIPTSPEPTGLEATAASTSTLPAGEGPKEGEAVVLPEVEPGLTAREQEATPRPRETTQLPTTHLASTTTATTAQEPATSHPHRDMQPGHHETSTPAGPSQADLHTPHTEDGGPSATERAAEDGASSQLPAAEGSGEQDFTFETSGENTAVVAVEPDRRNQSPVDQGATGASQGLLDRKEVLG
Take B3: the binding result in assay [1] is given as “binds”; in assay [2] it was “binds”; in assay [3], “binds”; in assay [4] it was “binds”; in assay [5] it was “no binding”; in assay [6], “binds”.
